Reference: US20070185028A1, “Compositions and methods for treatment of protein misfolding and protein aggregation diseases” (priority 2004, published 2007)

Key:
[1] = molecular target: T1, equine alcohol dehydrogenase (ADH) (Equus caballus, UniProt P00327); test: αB crystallin protein pin array with alcohol dehydrogenase; format: binding; conditions: ADH as ligand in the pin array
T1 construct: purchased Sigma-Aldrich, MO 05646
Source text: (§1) Synthesis of Pins, binding and detection of peptides binding to ligand proteins. The αB crystallin protein pin array was used to measure the interaction between peptides and chaperone target proteins including bovine βH crystallin, human γD crystallin, equine alcohol dehydrogenase (ADH) and porcine citrate synthase (CS) as described (FIG. 12). Ghosh and Clark, Protein Sci 14: 684-95, 2005.
(§2) Refer to the methods section for detailed protocols. The absorbance corresponding to the blue coloration in each well was measured at λ=450 nm and plotted against the amino acid sequence of the corresponding peptide in that well (FIGS. 13 and 14). Wells containing peptides that have strong interactions with target proteins are dark blue and wells containing peptides that have weak or no interaction with target proteins are light blue or clear.
(§3) The purity of the target proteins used in the pin array assays, bovine βH crystallin, human γD crystallin, equine alcohol dehydrogenase (ADH) and porcine citrate synthase (CS) were determined to be >90% by SDS-PAGE. In addition, primary antibodies for each target protein were specific to that target protein and consequently contaminating proteins that may bind to the peptides will not be detected. Eighty-four sequential and overlapping peptide fragments corresponding to residues 1-175 of human αB crystallin were synthesized employing a simultaneous peptide synthesis strategy developed by Geysen, called Multipin Peptide Synthesis (Mimotopes, San Diego, Calif.). Geysen, Southeast Asian J Trop Med Public Health 21: 523-33, 1990; Chin et al., J Org Chem 62: 538-539, 1997. Peptides were immobilized on derivatized polyethylene pins arranged in a microtiter ELISA plate format. Each peptide was eight amino acids in length and consecutive peptides were offset by two amino acids. All peptides were bound covalently to the surface of the plastic pins. The first peptide was 1MDIAIHHP8 and the last peptide was 168PAVTAAPK175 for human αB crystallin.
(§4) Ghosh and Clark, Protein Sci 14: 684-95, 2005. […] The intensity of the blue color in the wells was measured at 450 nm using an ELISA plate-reader (BioTek, Winooski, Vt.). The intensity of the blue color (plotted on the X-axis) was a measure of the interaction between αB crystallin peptides (plotted on the Y-axis) and target proteins. To measure the effect of temperature on the interactions between interactive peptides and the target proteins, the target proteins were heated in a water-bath at 45° C. for fifteen minutes prior to use. Pin arrays are unable to differentiate between monomers, dimers or oligomers of target proteins that exist in solution. Instead, pin arrays are very sensitive detectors of interactions between individual peptides and the entire population (monomers, dimers or oligomers) of specific target proteins that may exist in solution under specific conditions. Each target protein was assayed two to five times. A single pin array was used for all experiments and no change in interactions was observed after more than thirty repetitions. The last three peptides of the protein pin array, 163REEKPAVT170, 165EKPAVTAA172, 167PAVTAAPK174, correspond to the epitope (163REEKPAVTAAPKK175) recognized by the primary antibody for human αB crystallin. A positive reaction is observed for these three peptides in the absence of human αB crystallin as the ligand due to direct binding of the anti-human αB crystallin antibody to these three peptides. The loss of efficiency for the pin array was measured using this assay. The loss of efficiency for the pin array was determined to be <5% by after more than 30 assays.
The pattern of absorbance at k=450 nm when αB crystallin peptides were assayed with unheated and pre-heated ADH was similar to the absorbance pattern obtained with unheated and pre-heated βH/γD crystallin (FIG. 17). […]

[2] = as provided by manufacturer (Mimotopes); cited from earlier work
beta amyloid = beta amyloid (Homo sapiens, UniProt P05067); test: αB crystallin protein pin array, binding of beta amyloid; conditions: immobilized 8-mer peptide; absorption at 450 nm
Source text: αB Crystallin peptides that bind the target protein beta-amyloid were identified by screening an αB crystallin protein pin array, which provides a systematic method for evaluating interactions between peptides corresponding to residues 1-175 of human αB crystallin and selected target proteins in a parallel and simultaneous manner.
Peptides were synthesized on derivatized polyethylene pins arranged in a microtiter plate format. Each peptide was 8 amino acids in length and consecutive peptides were offset by 2 amino acids. All peptides were covalently bonded to the surface plastic pins. The first immobilized peptide was 1MDIAIHHP8 and the last peptide was 168PAVTAAPK175 for the human αB crystallin.
After synthesis, the pins were pre-coated at room temperature with 2% Bovine Serum Albumin (BSA), 0.1% Tween-20 and 0.1% Sodium azide in 10 mM phosphate buffered saline pH 7.2 (PBS) for 1 hr, and washed three times for 10 mins each with 10 mM PBS. To screen for binding to the peptides, fixed concentrations of the target protein beta amyloid was dissolved in 10 mM PBS, containing 0.05% Tween-20, added to each well and incubated for 1 hr at room temperature. The pin array was washed three times for 10 mins each with 10 mM PBS, containing 0.05% Tween-20. Monoclonal or polyclonal primary antibodies for the target protein beta amyloid was diluted into PBS buffer, added to each well and incubated for 1 hr at room temperature. Subsequently, the pin array was washed three times for 10 mins each with 10 mM PBS containing 0.05% Tween-20. Anti-rabbit horse-radish peroxidase conjugate secondary antibodies was diluted into PBS buffer, added to each well and incubated for 1 hr at room temperature. The pin array was washed three times for 10 mins each with 10 mM PBS containing 0.05% Tween-20. A chromogenic substrate of horse-radish peroxidase 3,3′,5,5′-Tetramethylbenzidine (TMB) (Pharmingen, San Diego, Calif.) which is colorless was added, and the reaction was carried out for 45 min.
The reaction was stopped by adding 6N sulfuric acid, which changes the color from blue to yellow. The absorption at 450 nm was measured by an ELISA reader (BioTek, Winooski, Vt.).
The pin array was regenerated by sonication in a water bath (VWR Aquasonic, West Chester, Pa.) with 100 mM PBS, containing 1% Sodium dodecyl sulfate (SDS) and 0.1% 2-Mercaptoethanol@60° C. for 10 mins. Next, the pin array was rinsed three times in deionized water, preheated to 60° C. for 30 secs each time, and shaken in water preheated at 60° C. for 30 min. The pin array was then washed with methanol at 60° C. for 15 secs and air-dried and stored @−20° C. for future use. Each target protein was assayed 2-5 times against the human αB crystallin protein pin array peptides to verify the reproducibility of the results. Peptides numbered 5, 7, 8, 9, 13, 19, 22, 23, 24, 27, 35, 38, 45, 51, 52, 56, 57, 61, 66, 71, 72, and 79 in Table 2 reproducibly tested positive in the protein pin assay.

bovine βH crystallin = test: αB crystallin protein pin array with βH crystallin; format: binding; conditions: unheated βH crystallin, 23° C.; similar maxima pre-heated 45° C.
Source text: as §1, §2, §3, §4
Protein pin arrays enabled the identification of interactive sequences necessary for the chaperone activity of human αB crystallin. Interactions between immobilized 8-mer human αB crystallin peptides and unheated and pre-heated βH crystallin, a natural protein constitute of lens cells, were measured as absorbances at λ=450 nm at 23° C. […]

[3] = molecular target: T2, porcine citrate synthase (CS) (Sus scrofa, UniProt P00889); test: αB crystallin protein pin array with citrate synthase; format: binding; conditions: CS as target protein in the pin array
T2 construct: purchased Roche Diagnostics, IN 103 381
T2 sequence (P00889 28-464): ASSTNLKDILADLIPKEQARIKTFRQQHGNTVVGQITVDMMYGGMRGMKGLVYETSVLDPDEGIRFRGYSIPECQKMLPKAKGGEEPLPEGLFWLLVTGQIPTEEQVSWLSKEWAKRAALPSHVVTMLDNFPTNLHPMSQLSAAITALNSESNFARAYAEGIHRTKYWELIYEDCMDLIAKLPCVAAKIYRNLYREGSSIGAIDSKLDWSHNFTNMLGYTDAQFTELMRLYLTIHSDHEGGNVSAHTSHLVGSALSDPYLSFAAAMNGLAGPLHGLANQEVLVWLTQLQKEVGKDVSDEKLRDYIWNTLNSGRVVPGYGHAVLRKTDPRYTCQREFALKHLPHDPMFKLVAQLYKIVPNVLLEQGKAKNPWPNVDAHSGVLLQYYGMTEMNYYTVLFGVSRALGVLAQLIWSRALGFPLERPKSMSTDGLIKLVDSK
Source text: as §1, §2, §3, §4
The pattern of absorbance at λ=450 nm when αB crystallin peptides were assayed with unheated and pre-heated CS was similar to the absorbance pattern obtained with unheated and pre-heated βH/γD crystallin and ADH (FIG. 18). […]

human γD crystallin = molecular target: T3, human γD crystallin (Homo sapiens, UniProt P07320); test: αB crystallin protein pin array with γD crystallin; format: binding; conditions: unheated γD crystallin; similar maxima pre-heated 45° C.
T3 construct: made in house
T3 sequence (P07320 1-174): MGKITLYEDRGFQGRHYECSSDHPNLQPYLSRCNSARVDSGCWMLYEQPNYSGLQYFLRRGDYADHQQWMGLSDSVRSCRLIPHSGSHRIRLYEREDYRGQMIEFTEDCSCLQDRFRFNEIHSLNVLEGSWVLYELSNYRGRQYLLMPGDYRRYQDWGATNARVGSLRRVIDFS
Source text: as §1, §2, §3, §4
When βH crystallin was replaced with γD crystallin, a native protein constituent of lens cytoplasm from the same gene family as the β crystallins, as the ligand in the pin array, twelve interactive sequences were identified (FIG. 14: striped bars). […]

T1 sequence (P00327 whole entry): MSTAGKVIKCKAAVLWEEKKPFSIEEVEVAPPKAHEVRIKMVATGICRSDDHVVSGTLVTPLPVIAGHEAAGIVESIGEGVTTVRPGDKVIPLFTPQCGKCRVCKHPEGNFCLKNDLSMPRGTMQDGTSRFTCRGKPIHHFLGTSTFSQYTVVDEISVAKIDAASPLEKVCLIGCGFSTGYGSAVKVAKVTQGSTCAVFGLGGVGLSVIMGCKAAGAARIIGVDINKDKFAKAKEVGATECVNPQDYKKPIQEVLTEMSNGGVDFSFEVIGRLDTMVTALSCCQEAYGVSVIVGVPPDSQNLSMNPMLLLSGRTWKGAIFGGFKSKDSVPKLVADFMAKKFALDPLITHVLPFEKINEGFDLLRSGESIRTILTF

Sequence | absorbance at 450 nm, interaction with ADH [1] | Hydrophobicity [2] | binding of beta amyloid in the protein pin assay (beta amyloid) | absorbance at 450 nm, interaction with βH crystallin (bovine βH crystallin) | absorbance at 450 nm, interaction with CS [3] | absorbance at 450 nm, interaction with γD crystallin (human γD crystallin)
FFGEHLLE [Peptide 14] | Maximum absorbances | 0.73 | – | – | – | –
FISREFHR [Peptide 57] | – | 0.35 | positive | Maximum absorbances | absorbance maxima | –
FPFHSPSR [Peptide 8] | – | 0.51 | positive | – | absorbance maxima | –
FYLRPPSF [Peptide 24] | – | 0.83 | positive | Maximum absorbances | absorbance maxima | maximum absorbances
GVLTVNGP [Peptide 71] | Maximum absorbances | 0.57 | positive | Maximum absorbances | – | maximum absorbances
LFPTSTSL [Peptide 19] | Maximum absorbances | 0.79 | positive | – | – | –
LRAPSWFD [Peptide 28] | – | 0.62 | – | – | absorbance maxima | –
LRPPSFLR [Peptide 25] | Maximum absorbances | 0.57 | – | – | – | –
LTVNGPRK [Peptide 72] | – | 0.16 | positive | – | absorbance maxima | –
PFFPFHSP [Peptide 7] | Maximum absorbances | 0.95 | positive | – | – | maximum absorbances
RLEKDRFS [Peptide 35] | Maximum absorbances | −0.12 | positive | Maximum absorbances | – | –
RTIPITRE [Peptide 79] | Maximum absorbances | 0.27 | positive | Maximum absorbances | absorbance maxima | –
SFLRAPSW [Peptide 27] | – | 0.71 | positive | – | – | maximum absorbances
SLSPFYLR [Peptide 22] | Maximum absorbances | 0.72 | positive | – | absorbance maxima | maximum absorbances
SREFHRKY [Peptide 58] | Maximum absorbances | −0.1 | – | – | – | –
